From CN117396514A (ELEKTA S R L, dated 2024)

T1: 人MerTK, M2c分化的人巨噬细胞上 (human, UniProt Q12866 21-999)
T1 sequence: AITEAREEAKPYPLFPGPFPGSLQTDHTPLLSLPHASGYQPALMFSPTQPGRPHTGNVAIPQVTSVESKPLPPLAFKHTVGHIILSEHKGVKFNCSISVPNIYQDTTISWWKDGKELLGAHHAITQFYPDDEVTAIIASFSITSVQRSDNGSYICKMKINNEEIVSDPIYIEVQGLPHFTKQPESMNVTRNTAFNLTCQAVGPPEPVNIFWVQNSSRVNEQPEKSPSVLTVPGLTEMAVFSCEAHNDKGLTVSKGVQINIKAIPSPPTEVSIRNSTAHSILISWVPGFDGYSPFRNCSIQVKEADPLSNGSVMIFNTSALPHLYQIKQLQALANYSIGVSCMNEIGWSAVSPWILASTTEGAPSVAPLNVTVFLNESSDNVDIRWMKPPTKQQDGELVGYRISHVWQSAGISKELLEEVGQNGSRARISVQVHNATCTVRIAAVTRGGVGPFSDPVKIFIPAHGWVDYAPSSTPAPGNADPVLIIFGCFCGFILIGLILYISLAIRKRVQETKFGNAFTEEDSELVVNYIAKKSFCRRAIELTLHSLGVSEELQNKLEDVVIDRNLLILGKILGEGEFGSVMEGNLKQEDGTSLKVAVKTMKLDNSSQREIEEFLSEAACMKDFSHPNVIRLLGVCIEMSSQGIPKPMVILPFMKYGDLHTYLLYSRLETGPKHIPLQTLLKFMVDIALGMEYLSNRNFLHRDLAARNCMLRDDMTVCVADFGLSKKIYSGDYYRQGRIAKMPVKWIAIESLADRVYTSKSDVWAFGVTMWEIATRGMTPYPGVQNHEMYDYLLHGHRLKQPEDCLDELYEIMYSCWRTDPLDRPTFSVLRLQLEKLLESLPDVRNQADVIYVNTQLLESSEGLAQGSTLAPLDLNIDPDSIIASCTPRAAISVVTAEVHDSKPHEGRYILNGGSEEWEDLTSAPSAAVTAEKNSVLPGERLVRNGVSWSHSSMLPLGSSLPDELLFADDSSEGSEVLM


How the values were obtained:
人MerTK, M2c分化的人巨噬细胞上 [1] = target: T1, 人MerTK, M2c分化的人巨噬细胞上; assay: cell-based or functional assay
人MerTK, M2c分化的人巨噬细胞上 [2] = target: T1, 人MerTK, M2c分化的人巨噬细胞上; assay: FACS, Dylight650-conjugated antibody titrated on M2c differentiated human macrophages; Kd from MFI by Prism (EC50-like)

胞葬作用 IC50 (efferocytosis of pHrodo-labelled apoptotic Jurkat cells by M2c human macrophages) (人MerTK, M2c分化的人巨噬细胞上 [1]) | Kd (人MerTK, M2c分化的人巨噬细胞上 [2]) | Binder
37.9 nM | ~78 nM | 单价(单臂)抗MerTK抗体MTK-16.2 (Fc LALAPS) (antibody, V domains shown, Dylight650 conjugate in the FACS binding assay (site not stated)) VH: QVQLVQSGSELKKPGASVKVSCKASGYTFTNHGMNWVRQAPGQGLEWMGWINTYTGEPTYADDFKGRFVFSLDTSVSTAYLQISSLKAEDTAVYYCARKGVTAARYFDYWGQGTLVTVSS VL: DIQMTQSPSSLSASVGDRVTITCRASQNVRTAVAWYQQKPGKAPKRLIYLASNRHTGVPSRFSGSGSGTEFTLTISNLQPEDFATYYCLQHWNYPLTFGGGTKLEIK
0.436 nM | ~52 nM | 二价(全IgG)抗MerTK抗体MTK-16.2 (Fc LALAPS) (antibody, V domains shown, Dylight650 conjugate in the FACS binding assay (site not stated)) VH: QVQLVQSGSELKKPGASVKVSCKASGYTFTNHGMNWVRQAPGQGLEWMGWINTYTGEPTYADDFKGRFVFSLDTSVSTAYLQISSLKAEDTAVYYCARKGVTAARYFDYWGQGTLVTVSS VL: DIQMTQSPSSLSASVGDRVTITCRASQNVRTAVAWYQQKPGKAPKRLIYLASNRHTGVPSRFSGSGSGTEFTLTISNLQPEDFATYYCLQHWNYPLTFGGGTKLEIKR
~4.4 nM |  | 单价(单臂)抗MerTK抗体MTK-33.11 (Fc LALAPS) (antibody, V domains shown, Dylight650 conjugate in the FACS binding assay (site not stated)) VH: QVQLVQSGAEVKKPGASVKVSCKASGYTFTSYWMHWVRQAPGQGLEWIGVIDPSDNYINYNQKFQGRVTMTRDTSTSTVYMELSSLRSEDTAVYYCAREAWTRGYFDYWGQGTLVTVSS VL: DIQMTQSPSSLSASVGDRVTITCQASRSVRNTVAWYQQKPGKAPKLLIYYASNRYTGVPSRFSGSGSGTDFTFTISSLQPEDIATYYCQQDYRSPFTFGQGTKLEIK
